Measurements: the supplement of paper PMC10065799, “High-throughput profiling of sequence recognition by tyrosine kinases and SH2 domains using bacterial peptide display” (eLife, 2023)
One block for each sequence: values may come before it.

How the values were obtained:
Fer (mouse) = assay: phosphorylation enrichment, bacterial display (enrichment ratio); higher = better substrate or ligand; peptides without Tyr show the background
EPHB2 = EPHB2 (UniProt P29323); assay: as above
AncSZ = assay: as above
c-Src = assay: as above
c-Abl (mouse) = assay: as above
Fyn = Fyn (UniProt P06241); assay: as above
Sequence of Fyn (P06241 whole entry, looked up): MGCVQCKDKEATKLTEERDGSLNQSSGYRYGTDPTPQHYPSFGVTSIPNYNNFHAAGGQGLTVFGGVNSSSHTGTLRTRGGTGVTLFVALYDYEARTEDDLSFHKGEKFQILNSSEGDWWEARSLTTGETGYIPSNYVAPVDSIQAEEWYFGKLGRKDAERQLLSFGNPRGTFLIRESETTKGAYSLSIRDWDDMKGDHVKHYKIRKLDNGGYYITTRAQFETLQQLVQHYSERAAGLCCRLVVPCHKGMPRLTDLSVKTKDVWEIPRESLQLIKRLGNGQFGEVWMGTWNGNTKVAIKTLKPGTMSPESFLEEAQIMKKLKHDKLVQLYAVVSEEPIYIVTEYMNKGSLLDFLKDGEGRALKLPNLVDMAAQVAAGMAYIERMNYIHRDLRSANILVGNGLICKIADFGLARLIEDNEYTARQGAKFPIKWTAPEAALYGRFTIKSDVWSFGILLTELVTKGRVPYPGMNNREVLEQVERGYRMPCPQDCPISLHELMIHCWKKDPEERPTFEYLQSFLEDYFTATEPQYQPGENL

MERTK = MERTK (UniProt Q12866); assay: as above
FGFR1 = FGFR1 (UniProt P11362); assay: as above
Jak2 = Jak2 (UniProt O60674); assay: as above
Sequence of Jak2 (O60674 whole entry, looked up): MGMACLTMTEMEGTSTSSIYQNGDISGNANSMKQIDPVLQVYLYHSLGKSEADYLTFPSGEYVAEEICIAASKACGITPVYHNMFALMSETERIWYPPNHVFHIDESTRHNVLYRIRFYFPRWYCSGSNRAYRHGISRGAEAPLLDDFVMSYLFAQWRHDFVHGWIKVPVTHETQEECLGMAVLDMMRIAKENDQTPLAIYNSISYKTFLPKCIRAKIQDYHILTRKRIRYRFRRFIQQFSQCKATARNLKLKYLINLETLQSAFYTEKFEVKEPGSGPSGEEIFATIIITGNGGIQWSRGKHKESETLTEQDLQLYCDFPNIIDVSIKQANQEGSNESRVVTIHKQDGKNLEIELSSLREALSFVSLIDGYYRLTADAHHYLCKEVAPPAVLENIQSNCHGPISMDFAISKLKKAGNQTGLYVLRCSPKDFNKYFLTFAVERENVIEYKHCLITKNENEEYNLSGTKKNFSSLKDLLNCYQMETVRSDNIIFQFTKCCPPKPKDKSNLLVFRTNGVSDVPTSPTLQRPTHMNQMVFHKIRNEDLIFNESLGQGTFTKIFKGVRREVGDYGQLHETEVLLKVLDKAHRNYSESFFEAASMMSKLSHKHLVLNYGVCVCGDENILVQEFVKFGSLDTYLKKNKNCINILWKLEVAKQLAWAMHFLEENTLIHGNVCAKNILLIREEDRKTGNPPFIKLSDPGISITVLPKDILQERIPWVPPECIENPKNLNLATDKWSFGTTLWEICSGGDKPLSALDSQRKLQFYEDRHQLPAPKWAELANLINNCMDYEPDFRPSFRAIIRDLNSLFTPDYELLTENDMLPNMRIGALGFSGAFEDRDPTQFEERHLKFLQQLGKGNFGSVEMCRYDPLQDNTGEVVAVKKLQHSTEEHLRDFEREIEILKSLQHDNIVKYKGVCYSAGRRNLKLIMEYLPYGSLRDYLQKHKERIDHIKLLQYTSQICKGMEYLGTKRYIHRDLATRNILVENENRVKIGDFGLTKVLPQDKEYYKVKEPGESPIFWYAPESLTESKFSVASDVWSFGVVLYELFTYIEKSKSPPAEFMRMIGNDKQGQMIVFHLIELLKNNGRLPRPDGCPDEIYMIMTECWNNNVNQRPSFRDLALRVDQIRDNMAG

Hck = Hck (UniProt P08631); assay: as above
Sequence of Hck (P08631 whole entry, looked up): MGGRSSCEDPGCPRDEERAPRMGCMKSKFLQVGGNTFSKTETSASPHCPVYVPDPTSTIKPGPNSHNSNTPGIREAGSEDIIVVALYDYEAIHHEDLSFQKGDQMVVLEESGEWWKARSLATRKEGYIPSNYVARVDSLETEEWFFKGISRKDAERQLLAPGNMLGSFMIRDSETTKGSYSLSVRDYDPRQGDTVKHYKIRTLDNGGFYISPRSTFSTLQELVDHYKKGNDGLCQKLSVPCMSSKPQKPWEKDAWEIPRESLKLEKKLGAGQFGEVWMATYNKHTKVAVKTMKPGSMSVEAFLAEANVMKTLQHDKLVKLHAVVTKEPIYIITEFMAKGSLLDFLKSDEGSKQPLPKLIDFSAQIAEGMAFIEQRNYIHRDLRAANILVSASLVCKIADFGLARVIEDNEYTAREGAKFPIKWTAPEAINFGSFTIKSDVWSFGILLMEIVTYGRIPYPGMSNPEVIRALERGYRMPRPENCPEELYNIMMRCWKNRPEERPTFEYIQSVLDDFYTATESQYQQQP

FGFR3 = FGFR3 (UniProt P22607); assay: as above
Fes = Fes (UniProt P07332); assay: as above
Sequence of Fes (P07332 whole entry, looked up): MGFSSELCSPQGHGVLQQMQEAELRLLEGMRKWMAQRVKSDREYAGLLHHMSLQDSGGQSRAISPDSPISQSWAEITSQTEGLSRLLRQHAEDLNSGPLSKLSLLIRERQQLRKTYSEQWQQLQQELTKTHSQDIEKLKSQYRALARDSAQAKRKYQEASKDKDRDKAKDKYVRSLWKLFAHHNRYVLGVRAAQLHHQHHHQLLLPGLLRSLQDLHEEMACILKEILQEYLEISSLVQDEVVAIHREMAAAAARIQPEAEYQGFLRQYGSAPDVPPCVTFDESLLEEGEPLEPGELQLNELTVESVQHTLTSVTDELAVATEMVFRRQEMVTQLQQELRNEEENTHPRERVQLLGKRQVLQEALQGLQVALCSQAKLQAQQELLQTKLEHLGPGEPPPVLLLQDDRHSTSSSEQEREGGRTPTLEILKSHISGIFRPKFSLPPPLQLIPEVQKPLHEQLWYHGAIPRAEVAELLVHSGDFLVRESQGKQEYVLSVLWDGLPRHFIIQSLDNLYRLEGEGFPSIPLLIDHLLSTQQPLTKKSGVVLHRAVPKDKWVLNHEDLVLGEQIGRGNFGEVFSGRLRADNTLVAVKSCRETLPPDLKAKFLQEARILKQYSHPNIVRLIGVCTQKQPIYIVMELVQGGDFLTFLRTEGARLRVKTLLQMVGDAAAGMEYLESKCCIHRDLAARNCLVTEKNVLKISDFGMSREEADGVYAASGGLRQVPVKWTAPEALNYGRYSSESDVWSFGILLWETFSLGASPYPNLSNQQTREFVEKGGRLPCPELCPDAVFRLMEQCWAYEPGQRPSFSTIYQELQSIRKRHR

EPHB1 = EPHB1 (UniProt P54762); assay: as above
Sequence of EPHB1 (P54762 whole entry, looked up): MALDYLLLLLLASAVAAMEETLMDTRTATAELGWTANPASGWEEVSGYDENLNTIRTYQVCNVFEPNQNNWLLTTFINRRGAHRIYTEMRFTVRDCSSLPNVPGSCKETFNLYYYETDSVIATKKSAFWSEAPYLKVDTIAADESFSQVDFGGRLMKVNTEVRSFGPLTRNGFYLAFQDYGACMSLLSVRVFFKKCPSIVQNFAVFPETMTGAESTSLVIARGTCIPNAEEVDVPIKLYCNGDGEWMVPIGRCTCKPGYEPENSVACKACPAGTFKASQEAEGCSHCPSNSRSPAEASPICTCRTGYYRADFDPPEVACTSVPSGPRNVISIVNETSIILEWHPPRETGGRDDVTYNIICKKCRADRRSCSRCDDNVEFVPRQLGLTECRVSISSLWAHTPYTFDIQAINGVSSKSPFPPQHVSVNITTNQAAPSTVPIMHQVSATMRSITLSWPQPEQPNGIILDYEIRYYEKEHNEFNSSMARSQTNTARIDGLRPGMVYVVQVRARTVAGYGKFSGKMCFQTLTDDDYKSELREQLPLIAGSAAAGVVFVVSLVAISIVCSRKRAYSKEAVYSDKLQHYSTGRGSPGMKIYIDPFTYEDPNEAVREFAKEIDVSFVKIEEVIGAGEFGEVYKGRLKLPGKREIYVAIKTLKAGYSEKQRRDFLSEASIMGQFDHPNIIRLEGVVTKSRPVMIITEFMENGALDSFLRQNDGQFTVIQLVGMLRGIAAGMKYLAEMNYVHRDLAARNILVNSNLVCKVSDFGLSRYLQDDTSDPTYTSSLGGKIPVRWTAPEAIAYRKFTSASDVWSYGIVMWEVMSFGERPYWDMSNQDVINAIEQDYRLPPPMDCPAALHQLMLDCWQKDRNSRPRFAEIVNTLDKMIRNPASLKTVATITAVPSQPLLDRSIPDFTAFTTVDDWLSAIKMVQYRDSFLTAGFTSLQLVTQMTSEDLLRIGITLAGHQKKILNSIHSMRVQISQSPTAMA

SHP2-C SH2 = assay: SH2 binding enrichment of the phosphorylated peptide, bacterial display (enrichment ratio); higher = better substrate or ligand; peptides without Tyr show the background
Grb2 SH2 = Grb2 SH2 (UniProt P62993); assay: as above
c-Src SH2 = assay: as above
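For SH2 binding enrichment of the phosphorylated peptide, bacterial display in this document: peptide library displayed on the E. coli surface as eCPX fusions, selected cells deep-sequenced, score is each peptide's frequency after selection divided by its frequency in the input.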
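For phosphorylation enrichment, bacterial display in this document: 11-residue human phosphosite peptides and single-mutation variants displayed on the E. coli surface, counted by deep sequencing, each peptide's frequency after selection divided by its frequency in the unselected input library; frequency after pTyr selection over input frequency; kinase dosed for 20-30% of maximal phosphorylation in three min.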

Sequence of EPHB2 (P29323 whole entry, looked up): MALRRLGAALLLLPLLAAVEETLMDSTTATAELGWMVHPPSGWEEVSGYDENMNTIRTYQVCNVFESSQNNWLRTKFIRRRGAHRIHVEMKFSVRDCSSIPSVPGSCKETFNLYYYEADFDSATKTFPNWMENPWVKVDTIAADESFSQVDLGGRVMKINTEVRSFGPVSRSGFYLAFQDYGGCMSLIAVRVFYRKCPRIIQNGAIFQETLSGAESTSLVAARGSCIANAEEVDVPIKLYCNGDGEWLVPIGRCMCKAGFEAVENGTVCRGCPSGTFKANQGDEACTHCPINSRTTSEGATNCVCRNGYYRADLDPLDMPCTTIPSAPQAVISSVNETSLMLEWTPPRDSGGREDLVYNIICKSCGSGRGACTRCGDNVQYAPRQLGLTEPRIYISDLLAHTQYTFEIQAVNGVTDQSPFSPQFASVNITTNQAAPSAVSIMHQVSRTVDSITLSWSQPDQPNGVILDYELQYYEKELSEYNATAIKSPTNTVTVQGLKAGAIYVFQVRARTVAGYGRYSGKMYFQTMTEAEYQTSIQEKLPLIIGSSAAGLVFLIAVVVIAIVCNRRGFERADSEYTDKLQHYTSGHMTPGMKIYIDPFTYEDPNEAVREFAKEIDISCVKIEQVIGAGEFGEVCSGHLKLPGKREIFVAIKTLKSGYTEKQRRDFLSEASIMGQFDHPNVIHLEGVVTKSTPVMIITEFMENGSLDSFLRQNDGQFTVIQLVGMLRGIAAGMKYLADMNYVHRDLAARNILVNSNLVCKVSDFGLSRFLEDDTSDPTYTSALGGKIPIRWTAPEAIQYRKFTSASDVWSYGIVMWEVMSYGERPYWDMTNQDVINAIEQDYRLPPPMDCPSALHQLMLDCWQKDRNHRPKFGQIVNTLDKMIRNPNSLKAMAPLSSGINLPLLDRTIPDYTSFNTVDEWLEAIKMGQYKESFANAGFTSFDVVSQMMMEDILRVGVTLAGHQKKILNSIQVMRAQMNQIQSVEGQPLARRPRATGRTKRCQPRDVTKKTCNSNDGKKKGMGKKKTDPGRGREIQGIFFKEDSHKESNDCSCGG

Sequence: SMAKFYASGIA [ACADSB_Y373_E376G_YF]
phosphorylation enrichment (Fer (mouse)): 0.369
phosphorylation enrichment (EPHB2): 0.485
phosphorylation enrichment (AncSZ): 0.738
phosphorylation enrichment (c-Src): 0.352
phosphorylation enrichment (c-Abl (mouse)): 0.51
phosphorylation enrichment (Fyn): 0.461
phosphorylation enrichment (MERTK): 0.464
phosphorylation enrichment (FGFR1): 0.428
phosphorylation enrichment (Jak2): 0.677
phosphorylation enrichment (Hck): 0.469
phosphorylation enrichment (FGFR3): 0.561
phosphorylation enrichment (Fes): 0.636
phosphorylation enrichment (EPHB1): 0.344
SH2 binding enrichment (SHP2-C SH2): 1
SH2 binding enrichment (Grb2 SH2): 0.701
SH2 binding enrichment (c-Src SH2): 0.359

Sequence: SNNFIYTTLGV [FAM83B_Y639_K640T_YF]
phosphorylation enrichment (Fer (mouse)): 2.67
phosphorylation enrichment (EPHB2): 1.39
phosphorylation enrichment (AncSZ): 0.899
phosphorylation enrichment (c-Src): 5.65
phosphorylation enrichment (c-Abl (mouse)): 1.56
phosphorylation enrichment (Fyn): 7.76
phosphorylation enrichment (MERTK): 6.9
phosphorylation enrichment (FGFR1): 1.22
phosphorylation enrichment (Jak2): 0.666
phosphorylation enrichment (Hck): 7.53
phosphorylation enrichment (FGFR3): 1.16
phosphorylation enrichment (Fes): 0.885
phosphorylation enrichment (EPHB1): 2.23
SH2 binding enrichment (SHP2-C SH2): 0.927
SH2 binding enrichment (Grb2 SH2): 0.936
SH2 binding enrichment (c-Src SH2): 0.72

Sequence: SNNYIYKTLGV [FAM83B_Y639]
phosphorylation enrichment (Fer (mouse)): 0.354
phosphorylation enrichment (EPHB2): 0.328
phosphorylation enrichment (AncSZ): 0.523
phosphorylation enrichment (c-Src): 0.476
phosphorylation enrichment (c-Abl (mouse)): 0.494
phosphorylation enrichment (Fyn): 0.467
phosphorylation enrichment (MERTK): 0.357
phosphorylation enrichment (FGFR1): 0.484
phosphorylation enrichment (Jak2): 0.46
phosphorylation enrichment (Hck): 0.549
phosphorylation enrichment (FGFR3): 0.546
phosphorylation enrichment (Fes): 0.58
phosphorylation enrichment (EPHB1): 0.48
SH2 binding enrichment (SHP2-C SH2): 0.968
SH2 binding enrichment (Grb2 SH2): 1.01
SH2 binding enrichment (c-Src SH2): 0.393

Sequence: SPFMLYQFLKQ [RPAP3_Y567_D564Y_YF]
phosphorylation enrichment (Fer (mouse)): 3.37
phosphorylation enrichment (EPHB2): 2.73
phosphorylation enrichment (AncSZ): 1.15
phosphorylation enrichment (c-Src): 0.867
phosphorylation enrichment (c-Abl (mouse)): 0.938
phosphorylation enrichment (Fyn): 0.621
phosphorylation enrichment (MERTK): 4.11
phosphorylation enrichment (FGFR1): 1.14
phosphorylation enrichment (Jak2): 1.07
phosphorylation enrichment (Hck): 4.2
phosphorylation enrichment (FGFR3): 0.99
phosphorylation enrichment (Fes): 1.34
phosphorylation enrichment (EPHB1): 4.55
SH2 binding enrichment (SHP2-C SH2): 1.67
SH2 binding enrichment (Grb2 SH2): 1.41
SH2 binding enrichment (c-Src SH2): 1.07

Sequence: SRASFYRKGGC [ALK_Y1283_Y1278S_YF]
phosphorylation enrichment (Fer (mouse)): 0.476
phosphorylation enrichment (EPHB2): 0.467
phosphorylation enrichment (AncSZ): 0.702
phosphorylation enrichment (c-Src): 0.575
phosphorylation enrichment (c-Abl (mouse)): 0.529
phosphorylation enrichment (Fyn): 0.433
phosphorylation enrichment (MERTK): 0.567
phosphorylation enrichment (FGFR1): 0.381
phosphorylation enrichment (Jak2): 0.615
phosphorylation enrichment (Hck): 0.477
phosphorylation enrichment (FGFR3): 0.496
phosphorylation enrichment (Fes): 0.627
phosphorylation enrichment (EPHB1): 0.431
SH2 binding enrichment (SHP2-C SH2): 0.548
SH2 binding enrichment (Grb2 SH2): 0.674
SH2 binding enrichment (c-Src SH2): 0.433

Sequence: SSDKVYAHQMV [MLH1_Y379]
phosphorylation enrichment (Fer (mouse)): 0.494
phosphorylation enrichment (EPHB2): 0.401
phosphorylation enrichment (AncSZ): 0.551
phosphorylation enrichment (c-Src): 0.514
phosphorylation enrichment (c-Abl (mouse)): 0.537
phosphorylation enrichment (Fyn): 0.538
phosphorylation enrichment (MERTK): 0.476
phosphorylation enrichment (FGFR1): 0.379
phosphorylation enrichment (Jak2): 0.431
phosphorylation enrichment (Hck): 0.458
phosphorylation enrichment (FGFR3): 0.416
phosphorylation enrichment (Fes): 0.573
phosphorylation enrichment (EPHB1): 0.404
SH2 binding enrichment (SHP2-C SH2): 0.594
SH2 binding enrichment (Grb2 SH2): 0.792
SH2 binding enrichment (c-Src SH2): 0.44

Sequence: SSEFHYVGGFF [CTSC_Y347_YF]
phosphorylation enrichment (Fer (mouse)): 0.558
phosphorylation enrichment (EPHB2): 0.532
phosphorylation enrichment (AncSZ): 0.949
phosphorylation enrichment (c-Src): 0.707
phosphorylation enrichment (c-Abl (mouse)): 0.897
phosphorylation enrichment (Fyn): 0.516
phosphorylation enrichment (MERTK): 0.428
phosphorylation enrichment (FGFR1): 0.572
phosphorylation enrichment (Jak2): 0.904
phosphorylation enrichment (Hck): 0.544
phosphorylation enrichment (FGFR3): 0.813
phosphorylation enrichment (Fes): 1.16
phosphorylation enrichment (EPHB1): 0.646
SH2 binding enrichment (SHP2-C SH2): 0.607
SH2 binding enrichment (Grb2 SH2): 0.688
SH2 binding enrichment (c-Src SH2): 0.376

Sequence: SSFPDYLAAVD [GLB1_Y154_D151Y_YF]
phosphorylation enrichment (Fer (mouse)): 0.66
phosphorylation enrichment (EPHB2): 0.603
phosphorylation enrichment (AncSZ): 1.31
phosphorylation enrichment (c-Src): 0.497
phosphorylation enrichment (c-Abl (mouse)): 0.703
phosphorylation enrichment (Fyn): 0.586
phosphorylation enrichment (MERTK): 0.422
phosphorylation enrichment (FGFR1): 0.676
phosphorylation enrichment (Jak2): 0.925
phosphorylation enrichment (Hck): 0.576
phosphorylation enrichment (FGFR3): 0.761
phosphorylation enrichment (Fes): 1.09
phosphorylation enrichment (EPHB1): 0.604
SH2 binding enrichment (SHP2-C SH2): 2.81
SH2 binding enrichment (Grb2 SH2): 0.816
SH2 binding enrichment (c-Src SH2): 0.509

Second part, led by results:

SH2 binding enrichment (SHP2-C SH2): 0.592
SH2 binding enrichment (Grb2 SH2): 0.889
SH2 binding enrichment (c-Src SH2): 0.469
Sequence: SLEKSYKLPDG [ACTA1_Y242_E243K]
phosphorylation enrichment (Fer (mouse)): 0.429
phosphorylation enrichment (EPHB2): 0.434
phosphorylation enrichment (AncSZ): 0.658
phosphorylation enrichment (c-Src): 0.41
phosphorylation enrichment (c-Abl (mouse)): 0.574
phosphorylation enrichment (Fyn): 0.397
phosphorylation enrichment (MERTK): 0.462
phosphorylation enrichment (FGFR1): 0.467
phosphorylation enrichment (Jak2): 0.649
phosphorylation enrichment (Hck): 0.393
phosphorylation enrichment (FGFR3): 0.455
phosphorylation enrichment (Fes): 0.757
phosphorylation enrichment (EPHB1): 0.408

SH2 binding enrichment (SHP2-C SH2): 0.636
SH2 binding enrichment (Grb2 SH2): 0.916
SH2 binding enrichment (c-Src SH2): 5.05
Sequence: SLQAHYDTPRS [DOK7_Y405_R402Q]
phosphorylation enrichment (Fer (mouse)): 0.593
phosphorylation enrichment (EPHB2): 0.479
phosphorylation enrichment (AncSZ): 0.513
phosphorylation enrichment (c-Src): 0.368
phosphorylation enrichment (c-Abl (mouse)): 3.19
phosphorylation enrichment (Fyn): 0.366
phosphorylation enrichment (MERTK): 0.529
phosphorylation enrichment (FGFR1): 0.352
phosphorylation enrichment (Jak2): 0.53
phosphorylation enrichment (Hck): 0.37
phosphorylation enrichment (FGFR3): 0.38
phosphorylation enrichment (Fes): 0.539
phosphorylation enrichment (EPHB1): 0.435

SH2 binding enrichment (SHP2-C SH2): 0.88
SH2 binding enrichment (Grb2 SH2): 0.68
SH2 binding enrichment (c-Src SH2): 0.414
Sequence: SNMPTYSGHFT [GRIN2A_Y1224]
phosphorylation enrichment (Fer (mouse)): 3.39
phosphorylation enrichment (EPHB2): 0.602
phosphorylation enrichment (AncSZ): 0.529
phosphorylation enrichment (c-Src): 2.04
phosphorylation enrichment (c-Abl (mouse)): 0.457
phosphorylation enrichment (Fyn): 1.71
phosphorylation enrichment (MERTK): 0.74
phosphorylation enrichment (FGFR1): 0.354
phosphorylation enrichment (Jak2): 0.653
phosphorylation enrichment (Hck): 1.47
phosphorylation enrichment (FGFR3): 0.428
phosphorylation enrichment (Fes): 0.557
phosphorylation enrichment (EPHB1): 0.636

SH2 binding enrichment (SHP2-C SH2): 0.503
SH2 binding enrichment (Grb2 SH2): 0.76
SH2 binding enrichment (c-Src SH2): 0.479
Sequence: SPRDTYSDRSG [CTPS1_Y567]
phosphorylation enrichment (Fer (mouse)): 0.369
phosphorylation enrichment (EPHB2): 0.473
phosphorylation enrichment (AncSZ): 0.494
phosphorylation enrichment (c-Src): 0.375
phosphorylation enrichment (c-Abl (mouse)): 0.608
phosphorylation enrichment (Fyn): 0.443
phosphorylation enrichment (MERTK): 0.322
phosphorylation enrichment (FGFR1): 0.382
phosphorylation enrichment (Jak2): 0.521
phosphorylation enrichment (Hck): 0.507
phosphorylation enrichment (FGFR3): 0.438
phosphorylation enrichment (Fes): 0.572
phosphorylation enrichment (EPHB1): 0.298

SH2 binding enrichment (SHP2-C SH2): 0.489
SH2 binding enrichment (Grb2 SH2): 0.913
SH2 binding enrichment (c-Src SH2): 1.28
Sequence: SREALYNEMDP [CACNA1A_Y794]
phosphorylation enrichment (Fer (mouse)): 0.731
phosphorylation enrichment (EPHB2): 0.693
phosphorylation enrichment (AncSZ): 1.41
phosphorylation enrichment (c-Src): 0.869
phosphorylation enrichment (c-Abl (mouse)): 0.852
phosphorylation enrichment (Fyn): 0.685
phosphorylation enrichment (MERTK): 2.36
phosphorylation enrichment (FGFR1): 0.692
phosphorylation enrichment (Jak2): 1.14
phosphorylation enrichment (Hck): 0.834
phosphorylation enrichment (FGFR3): 0.896
phosphorylation enrichment (Fes): 1.24
phosphorylation enrichment (EPHB1): 0.735

SH2 binding enrichment (SHP2-C SH2): 0.69
SH2 binding enrichment (Grb2 SH2): 0.899
SH2 binding enrichment (c-Src SH2): 0.437
Sequence: SRLSAYPALEG [CD5_Y465_H461R]
phosphorylation enrichment (Fer (mouse)): 0.391
phosphorylation enrichment (EPHB2): 0.495
phosphorylation enrichment (AncSZ): 0.723
phosphorylation enrichment (c-Src): 0.533
phosphorylation enrichment (c-Abl (mouse)): 0.471
phosphorylation enrichment (Fyn): 0.425
phosphorylation enrichment (MERTK): 0.496
phosphorylation enrichment (FGFR1): 0.486
phosphorylation enrichment (Jak2): 0.674
phosphorylation enrichment (Hck): 0.436
phosphorylation enrichment (FGFR3): 0.469
phosphorylation enrichment (Fes): 0.803
phosphorylation enrichment (EPHB1): 0.348

SH2 binding enrichment (SHP2-C SH2): 0.433
SH2 binding enrichment (Grb2 SH2): 0.643
SH2 binding enrichment (c-Src SH2): 0.607
Sequence: SSMIDYNTLEK [MYOC_Y479_P481T]
phosphorylation enrichment (Fer (mouse)): 0.453
phosphorylation enrichment (EPHB2): 0.506
phosphorylation enrichment (AncSZ): 0.792
phosphorylation enrichment (c-Src): 0.401
phosphorylation enrichment (c-Abl (mouse)): 0.486
phosphorylation enrichment (Fyn): 0.452
phosphorylation enrichment (MERTK): 0.408
phosphorylation enrichment (FGFR1): 0.401
phosphorylation enrichment (Jak2): 0.904
phosphorylation enrichment (Hck): 0.482
phosphorylation enrichment (FGFR3): 0.568
phosphorylation enrichment (Fes): 0.748
phosphorylation enrichment (EPHB1): 0.428

SH2 binding enrichment (SHP2-C SH2): 0.901
SH2 binding enrichment (Grb2 SH2): 0.882
SH2 binding enrichment (c-Src SH2): 0.442
Sequence: SSPVLYLSPET [TJP1_Y931_P930L]
phosphorylation enrichment (Fer (mouse)): 0.459
phosphorylation enrichment (EPHB2): 0.815
phosphorylation enrichment (AncSZ): 1.21
phosphorylation enrichment (c-Src): 0.469
phosphorylation enrichment (c-Abl (mouse)): 1.61
phosphorylation enrichment (Fyn): 0.534
phosphorylation enrichment (MERTK): 0.782
phosphorylation enrichment (FGFR1): 0.663
phosphorylation enrichment (Jak2): 1.02
phosphorylation enrichment (Hck): 0.626
phosphorylation enrichment (FGFR3): 0.713
phosphorylation enrichment (Fes): 0.833
phosphorylation enrichment (EPHB1): 1.14
